Data set [1] can be described thus: confocal imaging, filopodia shaft/cell body ratio, Lck-mCherry normalised. The settings on record: glycan lost; control: mEGFP-EAAT2 wild type.
The nature of data set [2]: confocal imaging, filopodia tip/shaft intensity ratio, COS-7. The following applies: glycan lost; control: mEGFP-EAAT2 wild type.

B1: EAAT2: EAAT2ΔG (protein)
parent chain: MASTEGANNMPKQVEVRMHDSHLSSDEPKHRNLGMRMCDKLGKNLLLSLTVFGVILGAVCGGLLRLASPIHPDVVMLIAFPGDILMRMLKMLILPLIISSLITGLSGLDAKASGRLGTRAMVYYMSTTIIAAVLGVILVLAIHPGNPKLKKQLGPGKKNDEVSSLDAFLDLIRNLFPENLVQACFQQIQTVTKKVLVAPPSEEANTTKAVISMLNETMNEAPEETKIVIKKGLEFKDGMNVLGLIGFFIAFGIAMGKMGEQAKLMVEFFNILNEIVMKLVIMIMWYSPLGIACLICGKIIAIKDLEVVARQLGMYMITVIVGLIIHGGIFLPLIYFVVTRKNPFSFFAGIFQAWITALGTASSAGTLPVTFRCLEDNLGIDKRVTRFVLPVGATINMDGTALYEAVAAIFIAQMNGVILDGGQIVTVSLTATLASIGAASIPSAGLVTMLLILTAVGLPTEDISLLVAVDWLLDRMRTSVNVVGDSFGAGIVYHLSKSELDTIDSQHRMQEDIEMTKTQSIYDDKNHRESNSNQCVYAAHNSVVIDECKVTLAANGKSADCSVEEEPWKREK
On to B1, for which the “localisation_or_trafficking, other: shaft/cell body density ratio” value in data set [1] is “decreases, 1.7 vs 2.7”. Also, in data set [2], the “localisation_or_trafficking, other: tip/shaft density ratio” value is on record as “increases, 2.8 vs 1.5”.

For the origin of these results see article PMC4357008.
